From patent US20260374878 (published 2026) come the findings set out here.

This experiment deals with T1, CLL1 (expressed on K562-CLL1 cells) (human, UniProt Q5QGZ9).
T1 chain: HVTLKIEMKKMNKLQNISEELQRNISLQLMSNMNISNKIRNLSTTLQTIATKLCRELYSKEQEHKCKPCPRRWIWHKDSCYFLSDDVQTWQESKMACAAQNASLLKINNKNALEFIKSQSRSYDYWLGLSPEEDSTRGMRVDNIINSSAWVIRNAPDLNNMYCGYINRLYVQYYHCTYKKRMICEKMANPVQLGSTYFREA
Nature of the experiment: FACS, K562-CLL1 cells, room temperature, bivalent Fc fusion. On the technique in general: Flow cytometry measures light scatter and fluorescence of single cells or particles in a stream.

B1: CLL1-VHH-16-hFc (antibody)
chain 1: DVQLQESGGGLVQPGGSLRLSCAASGFTFGSYDMTWVRQAPGKGPEWVSGINSGGSSTYYADSVKGRFTISRDNAKNTLYLQMNSLKPEDTAVYYCATIDRLSTVVAGTYQPSEEYDYWGQGTQVTVSS
chain 2: not shown
B1 showed a Kd of 5 nM.
